According to patent US20100260668A1 (published 2010):

B1: DVD516 (bispecific antibody, IgG1)
VH: EVQLVESGGGLVQPGGSLRLSCAASGFTINASWIHWVRQAPGKGLEWVGAIYPYSGYTNYADSVKGRFTISADTSKNTAYLQMNSLRAEDTAVYYCARWGHSTSPWAMDYWGQGTLVTVSSASTKGPEVQLQQSGPELEKPGASVKISCKASGYSFTGYNMNWVKQSNGKSLEWIGNIDPYFGGTNYNQKFKGKATLTVDKSSSTAYMQLKSLTSEDSAVYYCARNYDYDGGCFDYWGQGTTLTVSS
VL: DIQMTQSPSSLSASVGDRVTITCRASQVIRRSLAWYQQKPGKAPKLLIYAASNLASGVPSRFSGSGSGTDFTLTISSLQPEDFATYYCQQSNTSPLTFGQGTKVEIKRTVAAPQAVVTQESALTTSPGETVTLTCRSSTGAVTTSNYANWVQEKPDHLFTGLIGGTNNRAPGVPARFSGSLIGDKAALTITGAQTEDEAIYFCALWYSNHWVFGGGTKLTVLG
notes: DVD-Ig, outer AB071 / inner AB073; HC linker short, LC linker short; also called DVD516H; DVD516L
B2: DVD528 (bispecific antibody, IgG1)
VH: EVQLVESGGGLVQPGGSLRLSCAASGFTINASWIHWVRQAPGKGLEWVGAIYPYSGYTNYADSVKGRFTISADTSKNTAYLQMNSLRAEDTAVYYCARWGHSTSPWAMDYWGQGTLVTVSSASTKGPSVFPLAPEVQLQQSGPELEKPGASVKISCKASGYSFTGYNMNWVKQSNGKSLEWIGNIDPYFGGTNYNQKFKGKATLTVDKSSSTAYMQLKSLTSEDSAVYYCARNYDYDGGCFDYWGQGTTLTVSS
VL: B1 VL
notes: DVD-Ig, outer AB071 / inner AB073; HC linker long, LC linker short; also called DVD528H; DVD528L
B3: DVD534 (bispecific antibody, IgG1)
VH: B1 VH
VL: DIQMTQSPSSLSASVGDRVTITCRASQVIRRSLAWYQQKPGKAPKLLIYAASNLASGVPSRFSGSGSGTDFTLTISSLQPEDFATYYCQQSNTSPLTFGQGTKVEIKRTVAAPSVFIFPPQAVVTQESALTTSPGETVTLTCRSSTGAVTTSNYANWVQEKPDHLFTGLIGGTNNRAPGVPARFSGSLIGDKAALTITGAQTEDEAIYFCALWYSNHWVFGGGTKLTVLG
notes: DVD-Ig, outer AB071 / inner AB073; HC linker short, LC linker long; also called DVD534H; DVD534L
B4: DVD462 (bispecific antibody, IgG1)
VH: EVQLVESGGGLVQPGGSLRLSCAASGFTISDYWIHWVRQAPGKGLEWVAGITPAGGYTYYADSVKGRFTISADTSKNTAYLQMNSLRAEDTAVYYCARFVFFLPYAMDYWGQGTLVTVSSASTKGPQVQLVQSGAEVKKPGASVKISCKASGYSFTAYYIHWVKQAPGQGLEWIGYISSYNGATNYNQKFKGRVTFTTDTSTSTAYMELRSLRSDDTAVYYCARDYDYDVGMDYWGQGTLVTVSS
VL: DIQMTQSPSSLSASVGDRVTITCRASQDVSTAVAWYQQKPGKAPKLLIYSASFLYSGVPSRFSGSGSGTDFTLTISSLQPEDFATYYCQQSYTTPPTFGQGTKVEIKRTVAAPSVFIFPPDIVMTQSPDSLAVSLGERATISCRASESVDNYGISFMKWFQQKPGQPPKLLIYAASNQGSGVPDRFSGSGSGTDFTLTISSLQAEDVAVYYCQQSKEVPWTFGGGTKVEIKR
notes: HC linker short, LC linker long; also called DVD462H; DVD462L
B5: DVD461 (bispecific antibody, IgG1)
VH: QVQLVQSGAEVKKPGASVKISCKASGYSFTAYYIHWVKQAPGQGLEWIGYISSYNGATNYNQKFKGRVTFTTDTSTSTAYMELRSLRSDDTAVYYCARDYDYDVGMDYWGQGTLVTVSSASTKGPEVQLVESGGGLVQPGGSLRLSCAASGFTISDYWIHWVRQAPGKGLEWVAGITPAGGYTYYADSVKGRFTISADTSKNTAYLQMNSLRAEDTAVYYCARFVFFLPYAMDYWGQGTLVTVSS
VL: DIVMTQSPDSLAVSLGERATISCRASESVDNYGISFMKWFQQKPGQPPKLLIYAASNQGSGVPDRFSGSGSGTDFTLTISSLQAEDVAVYYCQQSKEVPWTFGGGTKVEIKRTVAAPSVFIFPPDIQMTQSPSSLSASVGDRVTITCRASQDVSTAVAWYQQKPGKAPKLLIYSASFLYSGVPSRFSGSGSGTDFTLTISSLQPEDFATYYCQQSYTTPPTFGQGTKVEIKR
notes: HC linker short, LC linker long; also called DVD461H; DVD461L
B6: DVD521 (bispecific antibody, IgG1)
VH: EVQLQQSGPELEKPGASVKISCKASGYSFTGYNMNWVKQSNGKSLEWIGNIDPYFGGTNYNQKFKGKATLTVDKSSSTAYMQLKSLTSEDSAVYYCARNYDYDGGCFDYWGQGTTLTVSSASTKGPSVFPLAPEVQLVESGGGLVQPGGSLRLSCAASGFTINASWIHWVRQAPGKGLEWVGAIYPYSGYTNYADSVKGRFTISADTSKNTAYLQMNSLRAEDTAVYYCARWGHSTSPWAMDYWGQGTLVTVSS
VL: QAVVTQESALTTSPGETVTLTCRSSTGAVTTSNYANWVQEKPDHLFTGLIGGTNNRAPGVPARFSGSLIGDKAALTITGAQTEDEAIYFCALWYSNHWVFGGGTKLTVLGQPKAAPSVTLFPPDIQMTQSPSSLSASVGDRVTITCRASQVIRRSLAWYQQKPGKAPKLLIYAASNLASGVPSRFSGSGSGTDFTLTISSLQPEDFATYYCQQSNTSPLTFGQGTKVEIKR
notes: DVD-Ig, outer AB073 / inner AB071; HC linker long, LC linker long; also called DVD521H; DVD521L
B7: DVD456 (bispecific antibody, IgG1)
VH: EVQLVESGGGLVQPGGSLRLSCAASGFTISDYWIHWVRQAPGKGLEWVAGITPAGGYTYYADSVKGRFTISADTSKNTAYLQMNSLRAEDTAVYYCARFVFFLPYAMDYWGQGTLVTVSSASTKGPSVFPLAPQVQLVQSGAEVKKPGASVKISCKASGYSFTAYYIHWVKQAPGQGLEWIGYISSYNGATNYNQKFKGRVTFTTDTSTSTAYMELRSLRSDDTAVYYCARDYDYDVGMDYWGQGTLVTVSS
VL: DIQMTQSPSSLSASVGDRVTITCRASQDVSTAVAWYQQKPGKAPKLLIYSASFLYSGVPSRFSGSGSGTDFTLTISSLQPEDFATYYCQQSYTTPPTFGQGTKVEIKRTVAAPDIVMTQSPDSLAVSLGERATISCRASESVDNYGISFMKWFQQKPGQPPKLLIYAASNQGSGVPDRFSGSGSGTDFTLTISSLQAEDVAVYYCQQSKEVPWTFGGGTKVEIKR
notes: HC linker long, LC linker short; also called DVD456H; DVD456L
B8: DVD515 (bispecific antibody, IgG1)
VH: EVQLQQSGPELEKPGASVKISCKASGYSFTGYNMNWVKQSNGKSLEWIGNIDPYFGGTNYNQKFKGKATLTVDKSSSTAYMQLKSLTSEDSAVYYCARNYDYDGGCFDYWGQGTTLTVSSASTKGPEVQLVESGGGLVQPGGSLRLSCAASGFTINASWIHWVRQAPGKGLEWVGAIYPYSGYTNYADSVKGRFTISADTSKNTAYLQMNSLRAEDTAVYYCARWGHSTSPWAMDYWGQGTLVTVSS
VL: QAVVTQESALTTSPGETVTLTCRSSTGAVTTSNYANWVQEKPDHLFTGLIGGTNNRAPGVPARFSGSLIGDKAALTITGAQTEDEAIYFCALWYSNHWVFGGGTKLTVLGQPKAAPDIQMTQSPSSLSASVGDRVTITCRASQVIRRSLAWYQQKPGKAPKLLIYAASNLASGVPSRFSGSGSGTDFTLTISSLQPEDFATYYCQQSNTSPLTFGQGTKVEIKR
notes: DVD-Ig, outer AB073 / inner AB071; HC linker short, LC linker short; also called DVD515H; DVD515L
B9: DVD527 (bispecific antibody, IgG1)
VH: B6 VH
VL: B8 VL
notes: DVD-Ig, outer AB073 / inner AB071; HC linker long, LC linker short; also called DVD527H; DVD527L
B10: DVD522 (bispecific antibody, IgG1)
VH: B2 VH
VL: B3 VL
notes: DVD-Ig, outer AB071 / inner AB073; HC linker long, LC linker long; also called DVD522H; DVD522L
B11: DVD524 (bispecific antibody, IgG1)
VH: EVQLVESGGGLVQPGGSLRLSCAASGYTFTNYGMNWVRQAPGKGLEWVGWINTYTGEPTYAADFKRRFTFSLDTSKSTAYLQMNSLRAEDTAVYYCAKYPHYYGSSHWYFDVWGQGTLVTVSSASTKGPSVFPLAPEVQLQQSGPELEKPGASVKISCKASGYSFTGYNMNWVKQSNGKSLEWIGNIDPYFGGTNYNQKFKGKATLTVDKSSSTAYMQLKSLTSEDSAVYYCARNYDYDGGCFDYWGQGTTLTVSS
VL: DIQMTQSPSSLSASVGDRVTITCSASQDISNYLNWYQQKPGKAPKVLIYFTSSLHSGVPSRFSGSGSGTDFTLTISSLQPEDFATYYCQQYSTVPWTFGQGTKVEIKRTVAAPQAVVTQESALTTSPGETVTLTCRSSTGAVTTSNYANWVQEKPDHLFTGLIGGTNNRAPGVPARFSGSLIGDKAALTITGAQTEDEAIYFCALWYSNHWVFGGGTKLTVLG
notes: HC linker long, LC linker short; also called DVD524H; DVD524L
B12: DVD455 (bispecific antibody, IgG1)
VH: QVQLVQSGAEVKKPGASVKISCKASGYSFTAYYIHWVKQAPGQGLEWIGYISSYNGATNYNQKFKGRVTFTTDTSTSTAYMELRSLRSDDTAVYYCARDYDYDVGMDYWGQGTLVTVSSASTKGPSVFPLAPEVQLVESGGGLVQPGGSLRLSCAASGFTISDYWIHWVRQAPGKGLEWVAGITPAGGYTYYADSVKGRFTISADTSKNTAYLQMNSLRAEDTAVYYCARFVFFLPYAMDYWGQGTLVTVSS
VL: DIVMTQSPDSLAVSLGERATISCRASESVDNYGISFMKWFQQKPGQPPKLLIYAASNQGSGVPDRFSGSGSGTDFTLTISSLQAEDVAVYYCQQSKEVPWTFGGGTKVEIKRTVAAPDIQMTQSPSSLSASVGDRVTITCRASQDVSTAVAWYQQKPGKAPKLLIYSASFLYSGVPSRFSGSGSGTDFTLTISSLQPEDFATYYCQQSYTTPPTFGQGTKVEIKR
notes: HC linker long, LC linker short; also called DVD455H; DVD455L

Each binder was assayed against VEGF (VEGF 1-165 aa, R&D Systems 293-VE-010) (UniProt P15692 27-191) (assay: Direct bind ELISA, VEGF coated on plate;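 note: ELISA screening of antibodies for binding to the plate-coated target antigen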).
Sequence of VEGF (VEGF 1-165 aa, R&D Systems 293-VE-010) (P15692 other isoform, or with tags, fused parts or gaps limits assumed): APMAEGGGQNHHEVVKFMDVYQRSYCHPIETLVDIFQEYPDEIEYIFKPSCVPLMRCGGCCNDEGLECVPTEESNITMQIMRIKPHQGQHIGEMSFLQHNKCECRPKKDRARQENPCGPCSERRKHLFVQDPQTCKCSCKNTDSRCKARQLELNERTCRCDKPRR

EC50 [nM] | Binder
24.6 | B1
27.7 | B2
23.6 | B3
8 | B4
10.4 | B5
655 | B6
1.63 | B7
3020 | B8
2380 | B9
23.5 | B10
0.3 | B11
26.7 | B12
